Experimental data as given in patent US20200115447A1 (Chugai, published 2020).
Residue numbers refer to the chain shown, from its start. Values belong to the binder of their own block, whether it stands above or below them.

Experiments:
human FcRn [1] = target: T1, human FcRn (human); test: Biacore SPR, pH7.0, against VH3/L(WT)-IgG1
T1 construct: also called soluble human FcRn complexed with β2-microglobulin
Protocol: (§1) Kinetic analyses between human FcRn and the antibody were carried out using Biacore T100 (GE Healthcare). A suitable amount of protein L (ACTIGEN) was immobilized onto a Sensor chip CM4 (GE healthcare) by the amine coupling method, and antibodies of interest were captured onto it. Next, diluted solutions of FcRn and the running buffer which is the blank were injected, and human FcRn was made to interact with the antibodies captured on the sensor chip. The running buffer used was 50 mmol/L sodium phosphate, 150 mmol/L NaCl, 0.05% (w/v) Tween 20, pH7.0, and the buffer was used for the FcRn dilutions. The sensor chip was regenerated using 10 mmol/L Glycine-HCl, pH1.5. All measurements were carried out at 25° C. Based on the association rate constant ka (1/Ms) and dissociation rate constant kd (1/s), which are kinetic parameters, calculated from the sensorgram obtained by the measurement, the KD (M) (affinity) of each antibody toward human FcRn was calculated. Each parameter was calculated using the Biacore T100 Evaluation Software (GE Healthcare).

human FcRn [2] = target: T2, human FcRn (human); test: Biacore, pH 7.0
T2 construct: also called soluble human FcRn complexed with β2-microglobulin
Protocol: as §1

human FcRn [3] = target: T3, human FcRn (human); test: Biacore SPR, antibody captured on protein L, human FcRn as analyte, pH 7.0, 25 C
T3 construct: also called soluble human FcRn complexed with β2-microglobulin
Protocol: as §1

mouse FcRn = target: T4, mouse FcRn (mouse, UniProt Q61559 22-297; P01887 21-119, limits assumed); test: Biacore SPR, mouse FcRn, pH 7.0
T4 sequence (looked up) 1: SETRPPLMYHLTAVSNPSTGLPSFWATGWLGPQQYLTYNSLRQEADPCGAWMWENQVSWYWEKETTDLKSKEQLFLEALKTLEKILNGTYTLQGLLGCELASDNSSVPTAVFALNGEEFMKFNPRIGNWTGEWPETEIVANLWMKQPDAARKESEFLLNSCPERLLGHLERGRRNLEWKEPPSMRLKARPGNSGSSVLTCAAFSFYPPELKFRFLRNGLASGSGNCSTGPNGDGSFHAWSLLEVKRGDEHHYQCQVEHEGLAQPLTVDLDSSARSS
T4 sequence (looked up) 2: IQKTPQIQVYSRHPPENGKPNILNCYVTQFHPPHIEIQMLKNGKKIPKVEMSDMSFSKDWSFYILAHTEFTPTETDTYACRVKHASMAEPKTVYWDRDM

[4] = target: T5, mFcγRI extracellular domain with C-terminal His-tag (mouse, UniProt P26151 25-297); test: Biacore SPR, antibody captured on Protein L, FcγR extracellular domain as analyte, 25 C
T5 construct: extracellular domain; also called mouse FcγRI
T5 sequence (looked up): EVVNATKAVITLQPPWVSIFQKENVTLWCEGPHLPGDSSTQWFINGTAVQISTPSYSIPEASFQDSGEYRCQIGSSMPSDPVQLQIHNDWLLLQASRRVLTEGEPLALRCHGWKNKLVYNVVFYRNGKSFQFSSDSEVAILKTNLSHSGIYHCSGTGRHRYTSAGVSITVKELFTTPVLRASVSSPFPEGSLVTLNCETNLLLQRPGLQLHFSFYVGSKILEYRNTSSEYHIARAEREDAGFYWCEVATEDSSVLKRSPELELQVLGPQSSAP
Protocol: (§2) Analysis of interaction between each of the altered antibodies and the extracellular domain of the Fcγ receptor prepared as mentioned above was carried out using Biacore T100 (GE Healthcare), Biacore T200 (GE Healthcare), Biacore A100, and Biacore 4000. HBS-EP+(GE Healthcare) was used for the running buffer, and the interactions were measured with a measurement temperature at 25° C. Chips produced by immobilizing Protein L (ACTIGEN or BioVision) by the amine coupling method to a Series S sensor Chip CM5 (GE Healthcare) or Series S sensor Chip CM4 (GE Healthcare) were used.
After capturing of each of the altered antibodies onto these sensor chips, the extracellular domain of the Fcγ receptor diluted with the running buffer was allowed to act on the chips to measure the binding level of each of the domains to each of the antibodies, and the binding levels were compared. However, since the amount of the bound extracellular domain of the Fcγ receptor depends on the amount of the antibodies captured on the sensorchip, the amount of the bound extracellular domain of the Fcγ receptor was divided by the respective amount of captured antibody to obtain corrected values, and these values were compared. Furthermore, by reaction with 10 mM glycine-HCl having pH of 1.5, antibodies captured onto the sensor chips were washed, and the regenerated sensor chips were used repeatedly.

[5] = target: T6, mFcγRII extracellular domain with C-terminal His-tag (mouse, UniProt P08101 30-210); test: Biacore SPR, antibody captured on Protein L, FcγR extracellular domain as analyte, 25 C, 1:1 Langmuir fit
T6 construct: extracellular domain; also called mouse FcγRII
T6 sequence (looked up): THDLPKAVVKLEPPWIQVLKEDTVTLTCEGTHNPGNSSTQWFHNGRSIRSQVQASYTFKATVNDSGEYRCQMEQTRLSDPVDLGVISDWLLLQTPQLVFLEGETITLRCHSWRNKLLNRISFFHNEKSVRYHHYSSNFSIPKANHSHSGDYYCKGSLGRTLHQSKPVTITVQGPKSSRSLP
Protocol: as §2
(§3) The KD values of each of the altered antibodies for the extracellular domain of the Fcγ receptor were calculated according to the following kinetic analysis method.

[6] = target: T7, mFcγRIII extracellular domain with C-terminal His-tag (mouse, UniProt P08508 31-215); test: as above
T7 construct: extracellular domain; also called mouse FcγRIII
T7 sequence (looked up): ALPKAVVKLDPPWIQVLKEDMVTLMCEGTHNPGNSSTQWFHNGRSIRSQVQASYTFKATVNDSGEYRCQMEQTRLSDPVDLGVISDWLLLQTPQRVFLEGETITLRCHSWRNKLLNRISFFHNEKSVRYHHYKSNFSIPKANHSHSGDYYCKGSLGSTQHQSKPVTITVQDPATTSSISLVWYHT
Protocol: as §2, §3

fold affinity relative to IgG1 (human FcRn [1]): ~600 fold
B1: IgG1-F157 (antibody)
heavy: QVQLQESGPGLVKPSETLSLTCAVSGHSISHDHAWSWVRQPPGEGLEWIGFISYSGITNYNPSLQGRVTISRDNSKNTLYLQMNSLRAEDTAVYYCARSLARTTAMDYWGEGTLVTVSSASTKGPSVFPLAPSSKSTSGGTAALGCLVKDYFPEPVTVSWNSGALTSGVHTFPAVLQSSGLYSLSSVVTVPSSSLGTQTYICNVNHKPSNTKVDKKVEPKSCDKTHTCPPCPAPELLGGPSVFLFPPKPKDTLMISRTAEVTCVVVDVSHEDPEVKFNWYVDGVEVHNAKTKPREEQYNSTYRVVSVLTPLHQDWLNGKEYKCKVSNKALPAPIEKTISKAKGQPREPQVYTLPPSRDELTKNQVSLTCLVKGFYPSDIAVEWESNGQPENNYKTTPPVLDSDGSFFLYSKLTVDKSRWQQGNVFSCSVLHEALHYHYTQKSLSLSP
light: not shown
notes: EU numbering; also called VH3/L(WT)-F157; copies: 2 + 2

Kd (mouse FcRn): 1.5 nM | binding result [4]: no binding | Kd [5]: 870 nM | Kd [6]: 140 nM
B4: Fv4-mF3 (antibody, mouse IgG1, kappa)
heavy: QVQLQESGPGLVKPSETLSLTCAVSGHSISHDHAWSWVRQPPGEGLEWIGFISYSGITNYNPSLQGRVTISRDNSKNTLYLQMNSLRAEDTAVYYCARSLARTTAMDYWGEGTLVTVSSAKTTPPSVYPLAPGSAAQTNSMVTLGCLVKGYFPEPVTVTWNSGSLSSGVHTFPAVLQSDLYTLSSSVTVPSSTWPSETVTCNVAHPASSTKVDKKIVPRDCGCKPCICTVPEVSSVFIFPPKPKDVLYITLEPKVTCVVVDISKDDPEVQFSWFVDDVEVHTAQTQPREEQFNSTFRSVSELPIMHQDWLNGKEFKCRVNSAAFPAPIEKTISKTKGRPKAPQVYTIPPPKEQMAKDKVSLTCMITDFFPEDITVEWQWNGQPAENYKNTQPIMDTDGSYFVYSKLNVQKSNWEAGNTFTCSVLHEGLKFHHTEKSLSHSPGK
light: DIQMTQSPSSLSASVGDSVTITCQASTDISSHLNWYQQKPGKAPELLIYYGSHLLSGVPSRFSGSGSGTDFTFTISSLEAEDAATYYCGQGNRLPYTFGQGTKVEIERADAAPTVSIFPPSSEQLTSGGASVVCFLNNFYPKDINVKWKIDGSERQNGVLNSWTDQDSKDSTYSMSSTLTLTKDEYERHNSYTCEATHKTSTSPIVKSFNRNEC
notes: VH3-mF3 with VL3-mCK; copies: 2 + 2

Further lines, the binder ahead of its results:

B2: F1353 (antibody)
heavy: B1 heavy with L237R, S241K, M254Y, A259P, P310V, L430M, H435D, Y438T, Q440R, S442E
light: not shown
notes: EU numbering; copies: 2 + 2
Kd (human FcRn [2]): 133 nM

B3: F1430 (antibody, IgG1, name in EU numbering)
heavy: QVQLQESGPGLVKPSETLSLTCAVSGHSISHDHAWSWVRQPPGEGLEWIGFISYSGITNYNPSLQGRVTISRDNSKNTLYLQMNSLRAEDTAVYYCARSLARTTAMDYWGEGTLVTVSSASTKGPSVFPLAPSSKSTSGGTAALGCLVKDYFPEPVTVSWNSGALTSGVHTFPAVLQSSGLYSLSSVVTVPSSSLGTQTYICNVNHKPSNTKVDKKVEPKSCDKTHTCPPCPAPELRGGPKVFLFPPKPKDTLYISREPEVTCVVVDVSHEDPEVKFNWYVDGVEVHNAKTKPREEQYNSTYRVVSKLTPLHQDWLNGKEYKCKVSNKALPAPIEKTISKAKGQPREPQVYTLPPSRDELTKNQVSLTCLVKGFYPSDIAVEWESNGQPENNYKTTPPVLDSDGSFFLYSKLTVDKSRWQQGNVFSCSVMHEALDYHVTRKELSLSP
light: not shown
notes: EU numbering; copies: 2 + 2
Kd (human FcRn [3]): 31 nM
